Experimental findings from US11578136B2, “Compositions and methods for treating cancer” (INNATE PHARMA, priority 2017, dated 2023) are described below.

Changes are numbered by the printed parent chain.

The target of experiment [1] is T1, CD39 mutants transfected in Hek-293T cells (Homo sapiens, UniProt P49961, E143A/N99A/Q96A/R147E).
T1 construct: expressed in transfected cells; host or cells: HEK-293T cells
T1 sequence (P49961 1-510 Q96A/N99A/E143A/R147E): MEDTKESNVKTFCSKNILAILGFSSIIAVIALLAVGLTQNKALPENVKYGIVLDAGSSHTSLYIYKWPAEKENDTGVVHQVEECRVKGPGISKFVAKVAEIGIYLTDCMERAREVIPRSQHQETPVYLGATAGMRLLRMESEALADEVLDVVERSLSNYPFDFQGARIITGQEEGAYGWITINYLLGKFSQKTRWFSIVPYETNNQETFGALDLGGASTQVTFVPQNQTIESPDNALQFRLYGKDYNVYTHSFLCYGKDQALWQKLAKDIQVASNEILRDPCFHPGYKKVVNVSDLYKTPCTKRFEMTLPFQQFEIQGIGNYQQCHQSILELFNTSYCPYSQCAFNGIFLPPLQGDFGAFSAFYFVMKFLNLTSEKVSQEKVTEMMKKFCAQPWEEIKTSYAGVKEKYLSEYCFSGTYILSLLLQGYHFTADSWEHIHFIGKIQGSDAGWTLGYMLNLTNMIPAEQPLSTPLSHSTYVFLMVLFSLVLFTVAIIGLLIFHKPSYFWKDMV
The experiment in a line: Epitope mapping: binding to CD39 mutants by flow cytometry. The conditions noted are these: mutant 5: Q96A, N99A, E143A, R147E; vs wild-type CD39. How it is done:
CD39 mutants were generated by PCR. The sequences amplified were run on agarose gel and purified using the Macherey Nagel PCR Clean-Up Gel Extraction kit (reference 740609). The purified PCR products generated for each mutant were then ligated into an expression vector, with the ClonTech InFusion system. The vectors containing the mutated sequences were prepared as Miniprep and sequenced. After sequencing, the vectors containing the mutated sequences were prepared as Midiprep using the Promega PureYield™ Plasmid Midiprep System. HEK293T cells were grown in DMEM medium (Invitrogen), transfected with vectors using Invitrogen's Lipofectamine 2000 and incubated at 37° C. in a CO2 incubator for 48 hours prior to testing for transgene expression. The targeted amino acid mutations in the table 1 below are shown using numbering of SEQ ID NO: 1.
In order to define the epitopes of anti-CD39 antibodies, we designed CD39 mutants defined by substitutions of amino acids exposed at the molecular surface over the surface of CD39. Mutants were transfected in Hek-293T cells, as shown in the table 1, using numbering of SEQ ID NO: 1.
Dose-ranges of I-394 (10-2.5-0.625-0.1563-0.0391-0.0098-0.0024-0.0006 μg/ml) are tested on the 20 generated mutants by flow cytometry. […] Mutant 5 contains amino acid substitutions at residues Q96, N99, E143 and R147.
Mutants were transfected in Hek-293T cells, as shown in the table 1, using numbering of SEQ ID NO: 1. Dose-ranges of antibodies I-394 were tested on the 20 mutants by flow cytometry. […] Mutant 19 includes substitutions at residues R138, M139 and E142. The core epitope of I-394 thus includes one or more (or all of) residues R138, M139 and E142.
Mutants were transfected in Hek-293T cells, as shown in the table 1, using numbering of SEQ ID NO: 1.Dose-ranges of test antibodies (10-2.5-0.625-0.1563-0.0391-0.0098-0.0024-0.0006 μg/ml) are tested on the 20 generated mutants by flow cytometry.
(In general: In flow cytometry, cells or beads pass a laser one at a time.)

Experiment [2] deals with T2, CHO cells expressing murine CD39 (Mus musculus, UniProt P55772).
T2 construct: expressed in transfected cells; host or cells: CHO cells
T2 sequence (P55772 1-510): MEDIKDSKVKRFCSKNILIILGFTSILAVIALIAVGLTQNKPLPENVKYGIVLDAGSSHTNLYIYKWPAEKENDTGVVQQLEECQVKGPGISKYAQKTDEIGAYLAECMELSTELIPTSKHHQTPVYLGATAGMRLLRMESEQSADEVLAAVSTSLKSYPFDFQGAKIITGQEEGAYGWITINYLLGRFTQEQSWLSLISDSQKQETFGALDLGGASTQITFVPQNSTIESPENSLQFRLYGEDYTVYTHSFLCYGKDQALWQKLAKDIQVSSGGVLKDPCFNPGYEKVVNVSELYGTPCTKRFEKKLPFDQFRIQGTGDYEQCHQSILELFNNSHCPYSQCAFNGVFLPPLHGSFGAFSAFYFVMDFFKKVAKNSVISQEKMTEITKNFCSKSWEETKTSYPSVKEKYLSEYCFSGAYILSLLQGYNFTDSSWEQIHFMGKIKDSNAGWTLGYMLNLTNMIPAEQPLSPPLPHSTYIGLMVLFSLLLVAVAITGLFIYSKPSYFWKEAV
The experiment in a line: Antibody titration on CHO-moCD39 by flow cytometry. Type of experiment: binding. The conditions noted are these: result in words. As to the method:
(§1) Antibody I-394 was tested in two repeated experiments for binding to CHO cells expressing human CD39, CHO cells expressing cynomolgus (Macaca fascicularis) CD39, CHO cells expressing murine CD39, and human Ramos lymphoma cells (ATCC™, reference CRL-1596). Cells were incubated with various concentration of unlabeled anti-CD39 antibody from 30 μg/ml to 5×10^−4 μg/ml, for 30 minutes at 4° C. After washes, cells were incubated with Goat anti-mouse H+L labeled secondary antibody for 30 min at 4° C.

For experiment [3], the target named is T3, CHO cells expressing human CD39 (Homo sapiens, UniProt P49961).
T3 construct: expressed in transfected cells; host or cells: CHO cells
T3 sequence (P49961 1-510): T1 sequence (P49961 1-510 Q96A/N99A/E143A/R147E) with A96Q, A99N, A143E, E147R
Put plainly: Antibody titration on CHO-huCD39 by flow cytometry. The conditions noted are these: result in words. It counts as binding. As to the method: as §1

Regarding “I-394: anti-CD39 antibody, VH SEQ ID NO: 6, VL SEQ ID NO: 7; human IgG1 Fc with L234A/L235E/G237A/A330S/P331S”, the “binding to cells expressing mutant 5 of CD39” value in experiment [1] is given as “strongly reduced binding”. Further, the “binding to cells expressing murine CD39 (CHO-moCD39)” value in experiment [2] is listed as “not”. Further, the “binding to cells expressing human CD39 (CHO-huCD39)” value in experiment [3] is given as “bound”.
